Experimental data from patent US20160136234A1.

Tests used:
Test in all cases: cell-based or functional assay
CDK2/cyclinA (h) (human) = CDK2/cyclinA (h) (human) (UniProt P24941)
PKCβI (h) (human) = PKCβI (h) (human) (UniProt P05771)
IR (h) (human) = IR (h) (human) (UniProt P06213)
TSSK2 (h) (human) = molecular target: T1, TSSK2 (h) (human) (UniProt Q96PF2)
T1 sequence (looked up): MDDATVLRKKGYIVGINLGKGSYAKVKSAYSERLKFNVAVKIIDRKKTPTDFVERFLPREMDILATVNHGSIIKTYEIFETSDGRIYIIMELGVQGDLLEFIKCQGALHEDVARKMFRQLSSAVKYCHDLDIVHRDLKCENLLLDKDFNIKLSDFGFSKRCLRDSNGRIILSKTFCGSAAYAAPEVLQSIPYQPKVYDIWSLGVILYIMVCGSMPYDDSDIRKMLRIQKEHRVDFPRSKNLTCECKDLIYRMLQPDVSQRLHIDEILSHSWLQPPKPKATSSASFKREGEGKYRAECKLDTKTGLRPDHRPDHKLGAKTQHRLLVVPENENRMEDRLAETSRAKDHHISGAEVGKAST

[1] = molecular target: CDK6/cyclinD3 (h) (human) (UniProt Q00534)
Sequence of CDK6/cyclinD3 (h) (human) (Q00534 whole entry, chain 1 of 2): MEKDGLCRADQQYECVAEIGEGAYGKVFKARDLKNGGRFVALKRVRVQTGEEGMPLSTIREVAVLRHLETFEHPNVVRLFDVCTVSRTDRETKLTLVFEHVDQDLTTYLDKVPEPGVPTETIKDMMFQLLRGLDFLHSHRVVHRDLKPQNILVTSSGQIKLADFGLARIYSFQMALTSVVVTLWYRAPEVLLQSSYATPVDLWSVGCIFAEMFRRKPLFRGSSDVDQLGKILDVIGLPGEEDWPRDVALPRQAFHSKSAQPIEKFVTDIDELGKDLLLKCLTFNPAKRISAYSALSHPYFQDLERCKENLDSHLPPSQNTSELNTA
Sequence of CDK6/cyclinD3 (h) (human) (P30281 whole entry, chain 2 of 2, further chain): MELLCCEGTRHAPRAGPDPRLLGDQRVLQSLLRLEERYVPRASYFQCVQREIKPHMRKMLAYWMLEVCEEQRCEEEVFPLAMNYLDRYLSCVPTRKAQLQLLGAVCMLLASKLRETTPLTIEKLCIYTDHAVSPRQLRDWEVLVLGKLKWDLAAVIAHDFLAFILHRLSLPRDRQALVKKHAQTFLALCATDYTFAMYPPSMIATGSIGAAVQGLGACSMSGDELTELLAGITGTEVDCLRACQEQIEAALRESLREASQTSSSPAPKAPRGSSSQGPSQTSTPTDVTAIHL

Pim-1 (h) (human) = Pim-1 (h) (human) (UniProt P11309)
SAPK2a (h) (human) = SAPK2a (h) (human) (UniProt Q16539)
Sequence of SAPK2a (h) (human) (Q16539 whole entry): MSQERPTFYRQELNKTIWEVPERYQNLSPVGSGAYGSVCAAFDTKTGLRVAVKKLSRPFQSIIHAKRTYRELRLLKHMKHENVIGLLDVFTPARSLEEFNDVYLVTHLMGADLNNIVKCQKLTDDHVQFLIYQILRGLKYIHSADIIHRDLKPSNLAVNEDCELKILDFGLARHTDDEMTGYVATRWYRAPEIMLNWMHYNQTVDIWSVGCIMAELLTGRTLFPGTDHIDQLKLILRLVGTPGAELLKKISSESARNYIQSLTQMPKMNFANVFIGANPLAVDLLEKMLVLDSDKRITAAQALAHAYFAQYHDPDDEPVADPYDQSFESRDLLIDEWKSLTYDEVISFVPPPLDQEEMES

DAPK1 (h) (human) = DAPK1 (h) (human) (UniProt P53355)
mTOR (h) (human) = mTOR (h) (human) (UniProt P42345)
Sequence of mTOR (h) (human) (P42345 1362-2549 limits assumed): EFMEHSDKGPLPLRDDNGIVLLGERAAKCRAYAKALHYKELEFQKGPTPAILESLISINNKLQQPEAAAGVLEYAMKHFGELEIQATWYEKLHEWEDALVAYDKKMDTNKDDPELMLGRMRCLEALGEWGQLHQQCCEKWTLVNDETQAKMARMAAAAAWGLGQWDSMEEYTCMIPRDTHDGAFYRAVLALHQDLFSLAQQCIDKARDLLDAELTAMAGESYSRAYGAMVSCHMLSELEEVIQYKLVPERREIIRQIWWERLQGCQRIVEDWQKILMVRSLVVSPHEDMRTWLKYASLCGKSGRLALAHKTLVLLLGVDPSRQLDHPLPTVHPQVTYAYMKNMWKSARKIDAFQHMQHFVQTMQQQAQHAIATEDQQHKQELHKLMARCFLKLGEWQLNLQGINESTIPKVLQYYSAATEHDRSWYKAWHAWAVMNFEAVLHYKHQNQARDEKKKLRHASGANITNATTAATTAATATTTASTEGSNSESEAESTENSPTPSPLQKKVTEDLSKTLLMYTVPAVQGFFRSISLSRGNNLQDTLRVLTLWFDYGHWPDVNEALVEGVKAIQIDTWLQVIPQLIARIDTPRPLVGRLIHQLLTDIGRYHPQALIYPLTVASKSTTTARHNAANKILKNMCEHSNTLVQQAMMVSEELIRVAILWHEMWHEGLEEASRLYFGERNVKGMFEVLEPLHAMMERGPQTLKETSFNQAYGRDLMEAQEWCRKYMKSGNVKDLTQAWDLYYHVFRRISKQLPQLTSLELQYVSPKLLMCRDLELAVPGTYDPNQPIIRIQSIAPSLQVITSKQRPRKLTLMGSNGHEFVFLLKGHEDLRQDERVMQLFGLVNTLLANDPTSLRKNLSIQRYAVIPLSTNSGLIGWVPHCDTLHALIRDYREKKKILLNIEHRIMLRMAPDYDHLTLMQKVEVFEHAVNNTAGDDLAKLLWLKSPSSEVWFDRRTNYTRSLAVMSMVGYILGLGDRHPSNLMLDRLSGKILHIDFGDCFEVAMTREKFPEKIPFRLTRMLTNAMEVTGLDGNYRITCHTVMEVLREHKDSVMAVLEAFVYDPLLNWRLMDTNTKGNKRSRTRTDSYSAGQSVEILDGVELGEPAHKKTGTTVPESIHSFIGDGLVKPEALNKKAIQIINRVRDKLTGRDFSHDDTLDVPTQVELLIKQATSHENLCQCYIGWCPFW

Rsk3 (h) (human) = Rsk3 (h) (human) (UniProt Q15349)
Sequence of Rsk3 (h) (human) (Q15349 whole entry): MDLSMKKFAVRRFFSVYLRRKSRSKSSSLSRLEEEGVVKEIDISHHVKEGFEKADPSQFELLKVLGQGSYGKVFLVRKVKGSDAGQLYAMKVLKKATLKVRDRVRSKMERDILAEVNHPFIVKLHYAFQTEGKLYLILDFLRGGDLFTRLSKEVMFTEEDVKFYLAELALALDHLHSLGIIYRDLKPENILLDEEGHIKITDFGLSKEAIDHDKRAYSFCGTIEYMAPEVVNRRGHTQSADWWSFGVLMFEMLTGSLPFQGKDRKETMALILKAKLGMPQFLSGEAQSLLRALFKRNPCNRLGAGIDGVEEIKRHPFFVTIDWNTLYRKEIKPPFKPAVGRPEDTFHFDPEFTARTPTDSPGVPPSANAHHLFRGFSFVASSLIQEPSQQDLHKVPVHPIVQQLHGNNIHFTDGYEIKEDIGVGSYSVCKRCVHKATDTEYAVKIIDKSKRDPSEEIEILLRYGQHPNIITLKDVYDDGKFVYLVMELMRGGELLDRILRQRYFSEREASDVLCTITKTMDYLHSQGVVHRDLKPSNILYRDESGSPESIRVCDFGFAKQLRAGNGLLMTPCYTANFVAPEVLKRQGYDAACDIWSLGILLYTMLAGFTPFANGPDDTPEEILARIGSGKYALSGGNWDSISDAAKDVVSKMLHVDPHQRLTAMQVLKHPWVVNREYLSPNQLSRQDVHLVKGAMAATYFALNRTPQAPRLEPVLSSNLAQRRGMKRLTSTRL

EphA8 (h) (human) = molecular target: T2, EphA8 (h) (human) (UniProt P29322)
T2 sequence (looked up): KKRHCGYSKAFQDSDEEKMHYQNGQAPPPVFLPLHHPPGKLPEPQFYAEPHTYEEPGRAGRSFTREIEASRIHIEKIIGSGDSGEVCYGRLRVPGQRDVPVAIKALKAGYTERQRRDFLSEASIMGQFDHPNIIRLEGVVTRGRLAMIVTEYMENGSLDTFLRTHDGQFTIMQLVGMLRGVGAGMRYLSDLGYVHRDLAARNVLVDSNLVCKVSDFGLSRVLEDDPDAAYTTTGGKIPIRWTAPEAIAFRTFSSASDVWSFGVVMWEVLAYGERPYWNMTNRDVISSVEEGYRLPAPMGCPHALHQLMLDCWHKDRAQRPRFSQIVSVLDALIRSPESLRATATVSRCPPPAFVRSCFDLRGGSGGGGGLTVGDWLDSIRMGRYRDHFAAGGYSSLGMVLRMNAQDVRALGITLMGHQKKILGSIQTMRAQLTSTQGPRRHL

Fes (h) (human) = Fes (h) (human) (UniProt P07332)
EphB3 (h) (human) = EphB3 (h) (human) (UniProt P54753)
Sequence of EphB3 (h) (human) (P54753 581-998 limits assumed): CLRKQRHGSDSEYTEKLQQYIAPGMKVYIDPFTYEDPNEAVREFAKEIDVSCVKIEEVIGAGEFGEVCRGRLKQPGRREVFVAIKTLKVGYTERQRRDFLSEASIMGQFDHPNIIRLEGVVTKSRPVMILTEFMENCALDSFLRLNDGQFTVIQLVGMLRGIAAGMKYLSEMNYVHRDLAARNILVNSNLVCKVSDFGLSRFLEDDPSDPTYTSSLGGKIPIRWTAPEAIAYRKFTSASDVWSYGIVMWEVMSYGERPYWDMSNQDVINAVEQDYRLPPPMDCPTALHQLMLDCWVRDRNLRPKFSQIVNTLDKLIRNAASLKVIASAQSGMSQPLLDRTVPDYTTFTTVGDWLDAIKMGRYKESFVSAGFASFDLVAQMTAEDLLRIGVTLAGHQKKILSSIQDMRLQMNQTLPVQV

PAK4 (h) (human) = PAK4 (h) (human) (UniProt O96013)
CHK2(I157T) (h) (human) = CHK2(I157T) (h) (human) (UniProt O96017)
Sequence of CHK2(I157T) (h) (human) (O96017 5-543 I157T limits assumed): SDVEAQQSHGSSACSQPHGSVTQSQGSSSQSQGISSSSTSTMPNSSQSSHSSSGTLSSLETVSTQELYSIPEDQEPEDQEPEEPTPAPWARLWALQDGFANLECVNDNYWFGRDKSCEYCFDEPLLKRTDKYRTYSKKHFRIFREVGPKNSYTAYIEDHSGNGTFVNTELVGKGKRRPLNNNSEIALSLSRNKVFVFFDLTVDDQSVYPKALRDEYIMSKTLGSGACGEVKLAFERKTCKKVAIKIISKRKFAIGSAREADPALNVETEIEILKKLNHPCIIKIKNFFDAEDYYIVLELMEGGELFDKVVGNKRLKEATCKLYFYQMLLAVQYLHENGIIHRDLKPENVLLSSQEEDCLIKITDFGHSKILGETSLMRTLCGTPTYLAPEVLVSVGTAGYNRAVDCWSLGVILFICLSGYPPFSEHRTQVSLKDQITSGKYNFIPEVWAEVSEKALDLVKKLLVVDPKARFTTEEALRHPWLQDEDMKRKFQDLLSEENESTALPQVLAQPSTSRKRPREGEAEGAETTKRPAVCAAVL

Fgr (h) (human) = Fgr (h) (human) (UniProt P09769)
MINK (h) (human) = MINK (h) (human) (UniProt Q8N4C8)
MKK6 (h) (human) = MKK6 (h) (human) (UniProt P52564)
Abl (H396P) (h) (human) = Abl (H396P) (h) (human) (UniProt P00519)
JNK1α1 (h) (human) = JNK1α1 (h) (human) (UniProt P45983)
PAK2 (h) (human) = PAK2 (h) (human) (UniProt Q13177)
Sequence of PAK2 (h) (human) (Q13177 whole entry): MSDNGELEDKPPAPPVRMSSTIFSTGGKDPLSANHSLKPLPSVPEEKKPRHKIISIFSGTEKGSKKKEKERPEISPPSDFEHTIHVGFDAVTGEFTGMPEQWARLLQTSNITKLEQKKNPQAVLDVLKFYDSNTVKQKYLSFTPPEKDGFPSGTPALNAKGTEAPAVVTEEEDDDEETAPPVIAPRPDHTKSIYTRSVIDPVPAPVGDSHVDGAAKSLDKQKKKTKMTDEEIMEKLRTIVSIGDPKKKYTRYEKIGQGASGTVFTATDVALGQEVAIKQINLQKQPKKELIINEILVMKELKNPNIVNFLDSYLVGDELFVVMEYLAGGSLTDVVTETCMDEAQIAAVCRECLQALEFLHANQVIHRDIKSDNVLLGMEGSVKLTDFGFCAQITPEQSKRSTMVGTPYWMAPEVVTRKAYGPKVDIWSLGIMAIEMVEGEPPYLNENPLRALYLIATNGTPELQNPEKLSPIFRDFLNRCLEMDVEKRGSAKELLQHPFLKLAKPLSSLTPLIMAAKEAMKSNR

Flt3(D835Y) (h) (human) = molecular target: T3, Flt3(D835Y) (h) (human) (UniProt P36888)
T3 sequence (looked up): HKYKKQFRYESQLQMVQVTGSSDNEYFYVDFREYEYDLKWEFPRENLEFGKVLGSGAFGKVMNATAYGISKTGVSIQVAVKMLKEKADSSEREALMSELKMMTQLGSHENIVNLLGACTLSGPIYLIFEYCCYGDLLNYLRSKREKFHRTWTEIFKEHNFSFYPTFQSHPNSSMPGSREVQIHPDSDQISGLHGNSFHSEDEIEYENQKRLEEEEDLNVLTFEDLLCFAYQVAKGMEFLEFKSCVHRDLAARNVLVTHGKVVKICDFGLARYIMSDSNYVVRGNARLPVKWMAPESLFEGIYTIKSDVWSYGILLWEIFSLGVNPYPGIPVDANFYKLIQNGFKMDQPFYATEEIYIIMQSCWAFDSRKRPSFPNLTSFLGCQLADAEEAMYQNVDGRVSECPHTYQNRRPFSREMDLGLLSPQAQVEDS

JNK2α2 (h) (human) = JNK2α2 (h) (human) (UniProt P45984)
NEK3 (h) (human) = molecular target: T4, NEK3 (h) (human) (UniProt P51956)
T4 sequence (looked up): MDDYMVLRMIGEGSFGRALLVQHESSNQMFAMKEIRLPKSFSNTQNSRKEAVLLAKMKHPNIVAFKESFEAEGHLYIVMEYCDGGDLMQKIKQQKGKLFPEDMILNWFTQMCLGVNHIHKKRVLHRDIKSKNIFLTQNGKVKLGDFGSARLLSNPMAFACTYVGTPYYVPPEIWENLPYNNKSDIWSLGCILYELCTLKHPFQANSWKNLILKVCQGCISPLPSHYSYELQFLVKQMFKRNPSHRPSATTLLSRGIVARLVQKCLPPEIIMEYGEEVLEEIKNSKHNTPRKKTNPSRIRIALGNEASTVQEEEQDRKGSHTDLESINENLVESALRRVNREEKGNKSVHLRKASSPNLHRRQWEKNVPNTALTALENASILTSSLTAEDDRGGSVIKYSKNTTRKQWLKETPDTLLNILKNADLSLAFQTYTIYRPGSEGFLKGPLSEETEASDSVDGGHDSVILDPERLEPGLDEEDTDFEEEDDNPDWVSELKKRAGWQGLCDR

Sequence of IR (h) (human) (P06213 1005-1310 limits assumed): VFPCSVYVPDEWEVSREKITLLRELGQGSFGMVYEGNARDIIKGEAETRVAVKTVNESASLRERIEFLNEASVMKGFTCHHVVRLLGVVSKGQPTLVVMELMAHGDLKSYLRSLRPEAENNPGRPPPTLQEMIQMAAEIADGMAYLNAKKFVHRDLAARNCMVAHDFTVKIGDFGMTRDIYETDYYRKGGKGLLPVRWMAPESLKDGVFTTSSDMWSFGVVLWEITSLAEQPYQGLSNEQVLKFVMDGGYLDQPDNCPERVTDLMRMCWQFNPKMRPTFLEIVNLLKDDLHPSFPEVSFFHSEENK

% activity at 100 µM (CDK2/cyclinA (h) (human)): 86%
% activity at 100 µM (PKCβI (h) (human)): 78%
% activity at 100 µM (IR (h) (human)): 96%
% activity at 100 µM (TSSK2 (h) (human)): 98%
% activity at 100 µM [1]: 86%
% activity at 100 µM (Pim-1 (h) (human)): 8%
% activity at 100 µM (SAPK2a (h) (human)): 90%
% activity at 100 µM (DAPK1 (h) (human)): 46%
% activity at 100 µM (mTOR (h) (human)): 91%
% activity at 100 µM (Rsk3 (h) (human)): 76%
% activity at 100 µM (EphA8 (h) (human)): 93%
% activity at 100 µM (Fes (h) (human)): 20%
% activity at 100 µM (EphB3 (h) (human)): 62%
% activity at 100 µM (PAK4 (h) (human)): 94%
% activity at 100 µM (CHK2(I157T) (h) (human)): 43%
% activity at 100 µM (Fgr (h) (human)): 60%
% activity at 100 µM (MINK (h) (human)): 48%
% activity at 100 µM (MKK6 (h) (human)): 48%
% activity at 100 µM (Abl (H396P) (h) (human)): 101%
% activity at 100 µM (JNK1α1 (h) (human)): 97%
% activity at 100 µM (PAK2 (h) (human)): 65%
% activity at 100 µM (Flt3(D835Y) (h) (human)): 80%
% activity at 100 µM (JNK2α2 (h) (human)): 98%
% activity at 100 µM (NEK3 (h) (human)): 92%
Substance: MMI-0300 (peptide)
